The labels stand for the following.
B1: MS1032LO06-SG1 (M103205H795-SG1/M103202L889-SK1) (antibody, human IgG1, kappa)
heavy: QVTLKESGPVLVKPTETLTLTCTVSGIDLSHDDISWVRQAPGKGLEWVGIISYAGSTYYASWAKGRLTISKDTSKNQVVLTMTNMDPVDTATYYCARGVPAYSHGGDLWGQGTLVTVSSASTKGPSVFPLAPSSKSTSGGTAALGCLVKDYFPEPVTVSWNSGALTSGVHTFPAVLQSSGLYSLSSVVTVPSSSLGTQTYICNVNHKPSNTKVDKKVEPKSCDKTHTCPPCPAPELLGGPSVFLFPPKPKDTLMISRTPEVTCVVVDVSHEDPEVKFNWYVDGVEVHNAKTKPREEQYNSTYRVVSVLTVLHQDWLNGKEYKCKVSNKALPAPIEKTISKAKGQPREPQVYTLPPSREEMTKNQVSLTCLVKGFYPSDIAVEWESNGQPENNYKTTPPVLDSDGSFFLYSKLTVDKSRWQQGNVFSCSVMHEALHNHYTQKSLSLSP
light: DIVMTQSPATLSLSPGERATLSCTSSQSVYHANWLSWFQQKPGQPPKLLIYWASTLAYGVPSRFSGSGSGTDFTLTISSLQPEDAATYYCAGGYGGGRYAFGQGTKVEIKRTVAAPSVFIFPPSDEQLKSGTASVVCLLNNFYPREAKVQWKVDNALQSGNSQESVTEQDSKDSTYSLSSTLTLSKADYEKHKVYACEVTHQGLSSPVTKSFNRGEC
notes: Anti-latent myostatin antibody
B2: MS1032LO06-PK55 (M103205H795-PK55/M103202L889-SK1) (antibody, human IgG1, kappa)
heavy: QVTLKESGPVLVKPTETLTLTCTVSGIDLSHDDISWVRQAPGKGLEWVGIISYAGSTYYASWAKGRLTISKDTSKNQVVLTMTNMDPVDTATYYCARGVPAYSHGGDLWGQGTLVTVSSASTKGPSVFPLAPSSKSTSGGTAALGCLVKDYFPEPVTVSWNSGALTSGVHTFPAVLQSSGLYSLSSVVTVPSSSLGTQTYICNVNHKPSNTKVDKKVEPKSCDKTHTCPPCPAPELLNGPSVFLFPPKPKDTLMISRTPEVTCVVVDVSDEDPEVKFNWYVDGVEVHNAKTKPREEQYNSTYRVVSVLTVLHRDWLNGKEYKCKVSNKALPKPIEKTISKAKGQRREPQVYTLPPSREEMTKNQVSLTCLVKGFYPSDIAVEWESNGQPENNYKTTPPVLDSDGSFFLYSKLTVDKSRWQQGNVFSCSVMHEALHNHYTQKSLSLSP
light: B1 light
notes: CH PK55 = SG1 with G236N/H268D/Q311R/A330K/P343R (EU numbering); also called MS103205H795-PK55
B3: MS1032LO06-MY201 (M103205H795-MY201/M103202L889-SK1) (antibody, human IgG1, kappa)
heavy: B2 heavy with R313Q, R345P
light: B1 light
notes: CH MY201 = SG1 with G236N/H268D/A330K (EU numbering); also called MS103205H795-MY201
B4: MS1032LO06-PK57 (M103205H795-PK57/M103202L889-SK1) (antibody, human IgG1, kappa)
heavy: B2 heavy with R345P, N386R, D415R
light: B1 light
notes: CH PK57 = SG1 with G236N/H268D/Q311R/A330K/N384R/D413R (EU numbering); also called MS103205H795-PK57
B5: MS1032LO06-PK56 (M103205H795-PK56/M103202L889-SK1) (antibody, human IgG1, kappa)
heavy: B2 heavy with D415R
light: B1 light
notes: CH PK56 = SG1 with G236N/H268D/Q311R/A330K/P343R/D413R (EU numbering); also called MS103205H795-PK56
B6: MS1032LO06-MY351 (M103205H795-MY351/M103202L889-SK1) (antibody, human IgG1, kappa)
heavy: B2 heavy with R345P, D415K
light: B1 light
notes: CH MY351 = SG1 with G236N/H268D/Q311R/A330K/D413K (EU numbering); also called MS103205H795-MY351
B7: MS1032LO06-MY352 (M103205H795-MY352/M103202L889-SK1) (antibody, human IgG1, kappa, name in EU numbering)
heavy: B2 heavy with R345P, D415R
light: B1 light
notes: Printed substitutions: G236N/H268D/Q311R/A330K/D413R (EU numbering); also called MS103205H795-MY352

Positions count from the first letter of the chain named. Numbers in names are those of the source.

T7 sequence (A3RFZ7 21-206): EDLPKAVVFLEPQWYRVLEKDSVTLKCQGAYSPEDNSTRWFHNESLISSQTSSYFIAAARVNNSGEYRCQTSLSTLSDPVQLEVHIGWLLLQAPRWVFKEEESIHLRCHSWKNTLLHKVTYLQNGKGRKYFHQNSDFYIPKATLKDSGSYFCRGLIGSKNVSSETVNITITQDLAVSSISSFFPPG

In one assay the target is T1, human FcγRIIaH extracellular domain, C-terminal His-tag (human, UniProt P12318 34-217).
T1 construct: also called human FcγRIIa (type H); FcgRIIaH; not shown: His-tag added to the C-terminus
T1 sequence: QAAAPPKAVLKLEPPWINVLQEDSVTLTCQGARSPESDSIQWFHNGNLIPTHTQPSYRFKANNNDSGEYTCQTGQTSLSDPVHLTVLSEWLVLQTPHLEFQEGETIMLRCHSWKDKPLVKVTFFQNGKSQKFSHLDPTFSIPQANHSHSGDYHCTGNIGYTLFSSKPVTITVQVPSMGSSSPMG
Nature of the assay: SPR; KD of SG1 divided by KD of variant.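 Further: relative to parent M103205H795-SG1 carrying the SG1 human heavy chain constant region.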 How it is done: (§1) The kinetic analysis of interactions between these antibodies and FcγR was carried out using BIACORE® T200 or BIACORE® 4000 (GE Healthcare). HBS-EP+ (GE Healthcare) was used as the running buffer, and the measurement temperature was set to 25° C. A chip produced by immobilizing Protein A. Protein A/G or mouse anti-human IgG kappa light chain (BD Biosciences) onto a Series S Sensor Chip CM4 or CM5 (GE Healthcare) by the amine-coupling method was used. […] After the measurement, the antibody captured on the chip was washed off by allowing reaction with 10 mM glycine-HCl, pH1.5 and 25 mM NaOH so that the chip was regenerated and used repeatedly. The sensorgrams obtained as measurement results were analyzed by the 1:1 Langmuir binding model using the BIACORE® Evaluation Software to calculate the binding rate constant ka (L/mol/s) and dissociation rate constant kd (l/s), and the dissociation constant KD (mol/L) was calculated from these values. […] Regarding such interactions, KD values were calculated using the following 1:1 binding model described in BIACORE® T100 Software Handbook BR1006-48 Edition AE.
In the case of B1, the “KD fold (SG1 = 1)” value was 1 fold.

In the case of B2, the “KD fold (SG1 = 1)” value turned out to be 1.1 fold.

Regarding B3, the “KD fold (SG1 = 1)” value came out at 0.9 fold.

As to B4, the “KD fold (SG1 = 1)” value amounted to 0.7 fold.

With B5, the “KD fold (SG1 = 1)” value came to 0.8 fold.

On to B6, for which the “KD fold (SG1 = 1)” value stood at 0.7 fold.

As for B7, the “KD fold (SG1 = 1)” value turned out to be 0.7 fold.

For the next assay, the target named is T2, human FcγRIIIaV extracellular domain, C-terminal His-tag (human, UniProt P08637 17-208).
T2 construct: also called FcgRIIIaV; not shown: His-tag added to the C-terminus
T2 sequence (P08637 17-208 F176V): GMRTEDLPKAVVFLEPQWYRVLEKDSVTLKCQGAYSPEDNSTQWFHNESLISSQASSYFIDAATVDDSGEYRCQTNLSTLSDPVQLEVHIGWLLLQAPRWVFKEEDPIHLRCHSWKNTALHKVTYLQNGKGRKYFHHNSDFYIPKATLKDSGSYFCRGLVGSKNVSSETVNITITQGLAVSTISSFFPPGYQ
Nature of the assay: SPR; KD of SG1 divided by KD of variant.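 Further: relative to parent M103205H795-SG1 carrying the SG1 human heavy chain constant region.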 How it is done: as §1
As for B1, the “KD fold (SG1 = 1)” value was determined as 1 fold.

On to B2, for which the “KD fold (SG1 = 1)” value amounted to 0.05 fold.

As to B3, the “KD fold (SG1 = 1)” value was determined as 0.02 fold.

On to B4, for which the “KD fold (SG1 = 1)” value was found to be 0.03 fold.

For the molecule B5, the “KD fold (SG1 = 1)” value came out at 0.06 fold.

Regarding B6, the “KD fold (SG1 = 1)” value is 0.08 fold.

Turning to B7, the “KD fold (SG1 = 1)” value worked out at 0.06 fold.

A further assay has as its target T3, cynomolgus monkey FcγRIIa2 extracellular domain, C-terminal His-tag (cynomolgus monkey).
T3 construct: also called cyno FcγRIIa2; FcgRIIa2; not shown: His-tag added to the C-terminus
T3 chain: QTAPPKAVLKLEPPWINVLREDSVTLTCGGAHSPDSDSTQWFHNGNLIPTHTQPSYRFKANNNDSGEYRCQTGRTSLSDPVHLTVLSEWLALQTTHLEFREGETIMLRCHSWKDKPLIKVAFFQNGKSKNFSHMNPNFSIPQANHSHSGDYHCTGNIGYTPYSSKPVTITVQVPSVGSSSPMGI
Nature of the assay: SPR; KD of SG1 divided by KD of variant.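 Further: relative to parent M103205H795-SG1 carrying the SG1 human heavy chain constant region.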 As for the experimental part: as §1
Take B1: the “KD fold (SG1 = 1)” value is 1 fold.

As for B2, the “KD fold (SG1 = 1)” value came out at 4.1 fold.

B3: the “KD fold (SG1 = 1)” value is 4 fold.

On to B4, for which the “KD fold (SG1 = 1)” value came to 2.8 fold.

Consider B5, for which the “KD fold (SG1 = 1)” value is 3.1 fold.

B6: the “KD fold (SG1 = 1)” value was determined as 3.6 fold.

As for B7, the “KD fold (SG1 = 1)” value amounted to 3.5 fold.

In the next assay the target is T4, human FcγRIIb extracellular domain, C-terminal His-tag (human, UniProt P31994 43-217).
T4 construct: also called FcgRIIb; not shown: His-tag added to the C-terminus
T4 sequence: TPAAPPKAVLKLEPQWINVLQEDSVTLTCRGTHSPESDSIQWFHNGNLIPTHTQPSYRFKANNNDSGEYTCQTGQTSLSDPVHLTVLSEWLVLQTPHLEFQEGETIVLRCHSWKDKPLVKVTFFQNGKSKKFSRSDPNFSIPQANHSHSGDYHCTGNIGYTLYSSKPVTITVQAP
Nature of the assay: SPR; KD of SG1 divided by KD of variant.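 Further: relative to parent M103205H795-SG1 carrying the SG1 human heavy chain constant region.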 How it is done:
as §1
With B1, the “KD fold (SG1 = 1)” value was 1 fold.

For the molecule B2, the “KD fold (SG1 = 1)” value came out at 6.3 fold.

For B3, the “KD fold (SG1 = 1)” value was 5.6 fold.

With B4, the “KD fold (SG1 = 1)” value was found to be 4.1 fold.

For the molecule B5, the “KD fold (SG1 = 1)” value was 4.7 fold.

Turning to B6, the “KD fold (SG1 = 1)” value came to 4.9 fold.

For the molecule B7, the “KD fold (SG1 = 1)” value was found to be 4.6 fold.

For the next assay, the target named is T5, cynomolgus monkey FcγRIIb extracellular domain, C-terminal His-tag (cynomolgus monkey).
T5 construct: also called cyno FcγRIIb; cynoFcγRIIb; not shown: His-tag added to the C-terminus
T5 chain: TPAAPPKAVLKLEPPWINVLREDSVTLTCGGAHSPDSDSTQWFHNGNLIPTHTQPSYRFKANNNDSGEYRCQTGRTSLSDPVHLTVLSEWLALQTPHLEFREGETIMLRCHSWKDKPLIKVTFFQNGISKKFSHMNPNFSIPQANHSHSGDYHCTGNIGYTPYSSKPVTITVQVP
Nature of the assay: SPR; KD of SG1 divided by KD of variant. How it is done: as §1
B1: the “KD fold (SG1 = 1)” value was 1 fold.

For the molecule B2, the “KD fold (SG1 = 1)” value turned out to be 5.4 fold.

For B3, the “KD fold (SG1 = 1)” value worked out at 5.8 fold.

For the molecule B4, the “KD fold (SG1 = 1)” value came out at 3.8 fold.

Turning to B5, the “KD fold (SG1 = 1)” value is 3.9 fold.

Take B6: the “KD fold (SG1 = 1)” value amounted to 5 fold.

B7: the “KD fold (SG1 = 1)” value turned out to be 4.7 fold.

For another assay, the target named is T6, human FcγRIIaR extracellular domain, C-terminal His-tag (human, UniProt P12318 34-217).
T6 construct: also called human FcγRIIa (type R); FcgRIIaR; not shown: His-tag added to the C-terminus
T6 chain: T1 sequence with H134R
Nature of the assay: SPR; KD of SG1 divided by KD of variant. As for the experimental part: as §1
Regarding B1, the “KD fold (SG1 = 1)” value came out at 1 fold.

For the molecule B2, the “KD fold (SG1 = 1)” value stood at 0.7 fold.

Turning to B3, the “KD fold (SG1 = 1)” value came to 0.8 fold.

On to B4, for which the “KD fold (SG1 = 1)” value came out at 0.5 fold.

Turning to B5, the “KD fold (SG1 = 1)” value was found to be 0.5 fold.

On to B6, for which the “KD fold (SG1 = 1)” value was found to be 0.6 fold.

Regarding B7, the “KD fold (SG1 = 1)” value turned out to be 0.6 fold.

Another assay has as its target T7, cynomolgus monkey FcγRIIIaS extracellular domain, C-terminal His-tag (cynomolgus monkey, UniProt A3RFZ7 21-206 (rhesus entry)).
T7 construct: also called cyno FcγRIIIaS; FcgRIIIaS; not shown: His-tag added to the C-terminus
Nature of the assay: SPR; KD of SG1 divided by KD of variant. How it is done:
as §1
Consider B1, for which the “KD fold (SG1 = 1)” value was found to be 1 fold.

For B2, the “KD fold (SG1 = 1)” value was 0.08 fold.

With B3, the “KD fold (SG1 = 1)” value came out at 0.08 fold.

Take B4: the “KD fold (SG1 = 1)” value is 0.06 fold.

Take B5: the “KD fold (SG1 = 1)” value came out at 0.06 fold.

Regarding B6, the “KD fold (SG1 = 1)” value was found to be 0.07 fold.

Turning to B7, the “KD fold (SG1 = 1)” value stood at 0.07 fold.

A further assay has as its target T8, cynomolgus monkey FcγRIIa1 extracellular domain, C-terminal His-tag (cynomolgus monkey).
T8 construct: also called cyno FcγRIIa1; FcgRIIa1; not shown: His-tag added to the C-terminus
T8 chain: T3 chain with T95P, A121T, K127I, S128A, N130K, N135D, Q142R
Nature of the assay: SPR; KD of SG1 divided by KD of variant. How it is done: as §1
As to B1, the “KD fold (SG1 = 1)” value was 1 fold.

Regarding B2, the “KD fold (SG1 = 1)” value is 3.3 fold.

For B3, the “KD fold (SG1 = 1)” value stood at 3.2 fold.

Consider B4, for which the “KD fold (SG1 = 1)” value is 2.5 fold.

Regarding B5, the “KD fold (SG1 = 1)” value worked out at 2.6 fold.

For the molecule B6, the “KD fold (SG1 = 1)” value was determined as 3 fold.

Turning to B7, the “KD fold (SG1 = 1)” value was determined as 2.7 fold.
